# From the DeepSol protein solubility set
# Test: soluble on expression in E. coli; label from the status in PepcDB or PDB records
row,Sequence,soluble on expression in E. coli
1,MGSDKIHHHHHHMIQLHVYEEIVNFKEEVTPFLEKNEQENNLILGVLQMVHQPIFMGIAKQGEEIAVVFLQTEEKKQIIVATSEISGVAIKELAKELTKIYPDIPGLIGDKKVVQHLAEEIAVLENKKTNVVMEQGVYELKEVKKKPSEDGFFREVSSDELTLIEEWIYQFCEDVNLPTTKEEAKQTAHTLITNHRLFGLEVDGKLVSVAAKTRPTKNNITVNFVYTPKEARKKGYASNCVAALSQRMLDEGYKTTTLYTDLANPTSNKIYQEIGYEQIAESVLIFLEK,not soluble
2,MGSDKIHHHHHHMIRMIRKFKVKGLRSPSLLIDMILNDTEEGILVVETDGEEQIKDIEKLLKKYNLKYEVDGNVVKIYVGEIKADKTINVVGATCPGPIMMVSDMLSKMKNGEILEIICGKNSLTDLTEGLKGMGNEIIKVEDKGDGTYRILVKKGEKKEEKAAVTKIDELFIINTTGTGNAEKAYATFMMADVALKMNLKPTIFLMMDGASLALKGECDRVKHPAFPKLGDLVRDILSKGVKIYVCELSAEFRGINEKNLEEGFEIAGAPTFLNYLSKPNVRPVWL,not soluble
3,MGSDKIHHHHHHMIRVLSVFGTRPEAIKMAPLVKKLEEEQNVESLVCVTAQHRQMLDQVLEVFDIKPDFDLNIMKERQNLSDITVNALSGLYDLIGELKPDIVLVQGDTTTTFAGALAAFYHRIPVGHVEAGLRTNDRYSPFPEEINRRLTGVLSTLHFAPTKRNRENLLKENVMGKIYVTGNTVIDALRYTVKENHVFEDPILRNMDFSDGRYILLTSHRRENIGKPLENICRAVRRIVEGFEDVKVIYPVHMNPAVREIVFPMLENVERVFLIDPVNVIDMHNLMARSYLIMTDSGGIQEEAPALGKPVIVLRKETERPEAIEAGVAVLGGVEEERIFELAKKLLVDREEYEKMAKAVNPFGDGRASERIVKAILHEFGLSDPPEEFC,not soluble
4,MGSDKIHHHHHHMISERMERQLDFIVAIDALKDITRQSITTGSRRQENDAEHSWHLAVMAMILSEYAEDQTIDIAKVISMVLIHDLVEIYAGDTYCYDEKGYEDKAEREQEAADRLFNMLPEDQAQRMMSLWQEFEEMETKEAAFAATLDRFQPLLLNYNTEGHTWQRPGITSEKVLKRTEIAKEKVPQLYVYIERLIQRSIERGMLKP,not soluble
5,MGSDKIHHHHHHMITGFASSLYKKYEGSTFELLADTVFSALEMAGLDKNYVDGIYLTYLPGTFDGYANSHFFTNQVAQYLGIRPKFTQIFDYGGASALSMIHRAYKAIKAGEGETILCIVGGKATELRNKGVTVDAIDKAYPNVSLTPFDRLFRGLNDLNPVSDYALVANRHKYLFKSTDEQRALIAVRQRFNAMQNSKAMFKDPLTIEQVLKSPLVSYPLHLLEIVYPIDGFHVFVVSKRSSKSALTNIDILGYGEAHWPFMPTELDEIVYTPAVESSKGLLNGRIDAFELYDSFTITVMLQVEDIGLAEKGKGGSFFENHDTTFKGDVPINTGGGSLNTGQPAYMSGGVILEEALLQLNDMADGHQVKGTDVVFLNGIGGWNRSHSVSLVLGEKK,not soluble
6,MGSDKIHHHHHHMITPQDRLIKALNGQVIDRSPCICPGGMMNMATTEIMQRVGSHWPEAHKKPQDMARLALGVCHLTGMENLGVPFCMTVEAEAMGAKVNLGSLANEPRVAEYPLMKLEDWETLSGINPGEGRAGIVAEAVSYLTSSKTELPVIANLTGPISLASSLIEPMVFFKAMGKKPELVHEFLYFVTDNLIVFGRSMLQAGAQIINIADPGGTEEILGPRHFAEFALPYINRILNELQGEYQASMVHICGRLQSIFTEINQLATNAISIDSTTSISKLRSALREKVVVGNISTYLLQNAQPGRVKATGFNCLRKGITILSPACGISPATPLANLQAMVSAVHDFDYQNREVSSLG,not soluble
7,MGSDKIHHHHHHMITQINIENFKCFSKKNMPVGALTMLTGFNAAGKSTALQALLLISQMVSGRHGDVSAALNGELVRMGTPGDVLRSDGSKEIKIGIETVEQKIQWTLVPSINLNNSLDLKDIHWASPNGVGDLTNISCNTSFNGLTPNEAPSDLSNLANEISDLIFISAVRMGTQDVYPSPTEPSPIRANVGMRGDYAPWWYEQHLDYEIDQKRVHSSEKALTLRRQLNAWLDQLFPGAEANAQKLPNTDLIQLLFRNSKTDVWRKPANIGYGLTYAFPILVAGLLARPGQLLIIDSPEAHLHPLGQSNMGKFLAKIAASGVQVLVETHSDHVLNGARLAVKSRVIDSRDVGILFFNRPPQKDGDPEHIIAPSIDKEGNLSDWPLGFFDQAENDLAVLADWG,not soluble
8,MGSDKIHHHHHHMIVKAKFVKGFIRDVHPYGCRREVLNQIDYCKKAIGFRGPKKVLIVGASSGFGLATRISVAFGGPEAHTIGVSYETGATDRRIGTAGWYNNIFFKEFAKKKGLVAKNFIEDAFSNETKDKVIKYIKDEFGKIDLFVYSLAAPRRKDYKTGNVYTSRIKTILGDFEGPTIDVERDEITLKKVSSASIEEIEETRKVMGGEDWQEWCEELLYEDCFSDKATTIAYSYIGSPRTYKIYREGTIGIAKKDLEDKAKLINEKLNRVIGGRAFVSVNKALVTKASAYIPTFPLYAAILYKVMKEKNIHENCIMQIERMFSEKIYSNEKIQFDDKGRLRMDDLELRKDVQDEVDRIWSNITPENFKELSDYKGYKKEFMNLNGFDLDGVDYSKDLDIELLRKLEP,not soluble
9,MGSDKIHHHHHHMIVKDYRREFEALAKAYEKAGGDVSKFLDRRIASIIISGDKVIGLNGVEGVELTPYRIENGVQVDMRIKEGVVVEYPVHVCTGYLEKKGLQRVVFNIRLEKNAKAIFVAHCVFPWTEDFTHDALMNVELEEGAWMEYHDEHTHSETGSINLITRSIARVGERAVYRNTFTLVKTRIGTLRVFMDASLEKDAVGELYTKVKAVEDDDVEVKEILRLNGMGARGLAKTNAVAIDRAKVSVVNEVYGNAPHTRGHVECLEIAKGDGVDVRALPVLVVKNDSSELTHEASIGRVNAKQLETLMAKGLTEEEATEMIIKGILT,not soluble
10,MGSDKIHHHHHHMIVPQEIYHPLYEDKEKFIILITGGRGSGKSFNASTFIERLTFELTPVEKIVHQILYTRYTMVSAGMSIIPEMMEKIELDGTTKYFKTTKTDIVNKMTKSRIMFRGIKTSSGNQTAKLKSIQGITTFVCDEAEEWTNEEEFDKIMLSIRKKGIQNRIIIIMNPCDSNHFIYKKYIENTHKLVEIDGVQVQISTHPNVLHIHTTYLDNLENLSPEFLKEVEDMKVNNPEKYAHVVIGRWADVAEGAVFKKWGIVDEFPAWAKKVAIGQDFGYTHDPSASIRCGIVDNALYLDEIDYRTGLLSSDIIKSLRPWGLKVIADSADPRLIQEIHNGGVKIYAVEKGAGSVNAGLDKMQGMEMYITKRSYNLQREYRKYVWAKDKDGNYINEPEDHDNHGIDAVRYYVLGELLGKIQKPKDLTGIFTH,not soluble
11,MGSDKIHHHHHHMKAVNENLKEQFVKRNKLAICATLRELKKNDTSLMVHHSHGQFISKILDVVPDNNLFVFDLGGIERENSRALYAGALSFIAEPAGAKVEFNAEIAKTVNYDGLPAFSAQIPELLYLIQRRTYFRINTPLWPPLTCRGELPDDSVFTFTIKDLSLGGLSLYTDRDTTGLLTEGDIIKSVEMDLADHGFFCVDLQFVGQAMVKIVDNKGELKLTQRLSFKFPSLNAAQERDLQQVIFELEKLQNEKKKRFQEL,not soluble
12,MGSDKIHHHHHHMKDKSNSPLIKELKLANLLSFGSETTDIQLNSLNVVVGPNGSGKSNLIDAISLLQASPSDLAVPIRKGGGIRDWLWRGMELPTASMEVITPSAPHGNKDLRYYLAFTALKQRFELIDECLETKEPYTNHSEPYFYYRYQNGNPVINNIKDQKRMLKREDIDPEQSILSQRKDPDQYPEITWLGKQFAAIRIYREWNFGRKALLRQPQGADAPNDYLAEDCSNLGLVLNKLRTNYKVKKKVLDLLSQFYEGIDDFDVIVEGGTVQLFLQEGEFMIPATRLSDGTLRFLCLLAILCNPDPPPLICIEEPELGIHSDIIPVIGQLLKDASKMTQLIVTTHSEILVDELTDMPEAVLVCEKHEGMTRFRRLEKDLLKDWLERYSLGELWRKGEIGGTRW,not soluble
13,MGSDKIHHHHHHMKETVYFGTYTRRTSQGIYKADFDTETGQLSNLELFAAEPSPTYLAFDQHQHLYTVGSQDDKGGIAAYQTDGTVLNHVVEEGAPHCYVAVDEKRDLVYAANYHKGQVLVYKRQEDGSLLLSDMDQHSGQGPHENQASPHVHYTDLTPDHYLVTCDLGTDQVITYDLDQEGKLSKLYTYHSKPGAGSRHIIFHNHYKIAYLICELNSTIEVLIYDGVGEFERMQVISTLPEAYEGFNGTAAIHLSKDGKYLYASNRGHDSIAVYTILADGSLELLEIVPTHGQTPRDFDLTPDQKFLIVVHQDSDNATVFKRNCDNGRLAELSNDFHVPEAVCIRFAP,not soluble
14,MGSDKIHHHHHHMKFAVSSKGDQVSDTLKSKIQAYLLDFDMELDENEPEIVISVGGDGTLLYAFHRYSDRLDKTAFVGVHTGHLGFYADWVPHEIEKLVLAIAKTPYHTVEYPLLEVIVTYHENEREERYLALNECTIKSIEGSLVADVEIKGQLFETFRGDGLCLSTPSGSTAYNKALGGAIIHPSIRAIQLAEMASINNRVFRTVGSPLLLPSHHDCMIKPRNEVDFQVTIDHLTLLHKDVKSIRCQVASEKVRFARFRPFPFWKRVQDSFIGKGE,not soluble
15,MGSDKIHHHHHHMKFKTVGNPNGPKILLIHPMFATSECFVNLVEYLKEDYFVITPTLDGHDINENSIFLSVEDEGNKVLAYLKDNSIKELDFMLGTSLGAIIAFEIYKRNEIRINKVYLDGGPFFKFGALLQKVAAKKFCNICSEVRQNPQKAINKIERLFKGLGNEMCEVACHITEESIKNLAHACYSFTLPNLKPVEQKSVVFLYGTKEPARFCIFRLRKYKYSRIIKKNGFSHCGYLLSYPKEYAEMLKENTQ,not soluble
16,MGSDKIHHHHHHMKFLRSLAFLNLQKKFKNKFNINILDYIKPKPTKICFKDFENKYLTAKQKEVLFDIESNNYSKVIFSGGIASGKTFLASYLLVKKLIENKSFYEQDTNNFIIGNSIGLLMTNTVKQIEKICSLLGIDYEKKKSGQSFCKIAGLKLNIYGGKNRDAFSKIRGGNSAIIYVNEATVIHRETLLEVIKRLRKGKEIIIFDTNPESPAHYFKTDYIENTDVFKTYNFTTYDNPLNSADFIQTQEKLYRRFPAYRARVLYGEWILNESTLFNEMIFNQDYEFKSPIMYIDPAFSVGGDNTAICVLERTFEKFYAYIYQDQKPVSDSLMLASIQVLIENFNVNTVYIEERDSTKGDGILTKTILFLRNKSSHYFKVAPIKPLSNKFKRICALIPLFESRKIEFLKIISKNVISDIYSYKGDGKTKDDALDSLANAYLLLTLNYKEKLFHFGRFKYL,not soluble
17,MGSDKIHHHHHHMKFNTTIKRLQEAVNKVILAVPAKSLDARFDNINLTLENGMLTMFATDGELSITTNCDVASTDKGNIAIRARTLQDFLRSMYETDVTFDIERQSIGELGTIHIATDKGRYRIPCTFTTKPESQKRNFDLSIELQQNELQDMIHKTLFACSVDGMRPAMMGVLFEFDEEYITAVSTDGHRLVRCRKKPGVTVAEKQKIVVPARVLSIIQRMLTNEEVKMTIDSERRNVKFKTATMELESALIVEPYPNYEAVIPVENEKQLVTDRSQLHDSVKRVGRFSSIGDLKISAQDSQIKVMAENASEGESAQEELPCTFTGEEITIGFNAKFVEAALSHIETEQVSIEMSSPTTAVLFKPKYEERQDDLIILVMPVRINN,not soluble
18,MGSDKIHHHHHHMKIAQVCPRFYPHIGGVETHVYEIASRIAKKFDVEVLTTDPGGKLPKVEEIDGLTVRRFKSLAPSEAYYFSPELYDYLKKNSSDYDVVHAHNYHAFPALFAALTKGKNKLIFTPHYHGSGHSFFRNVLHKPYKIFGRKIFKRADAIVCVSNYEKNLVLKNFKVAEDRTYVIPNGINLDEFKDIEKIKRNKESWKKTILYVGRVEKYKGLDYVVKSLKHLPDNFTLEVVGKGSYKSKIVEMAKKLDVIDRIRFYQDLSRKELIDRYAKADVLVLLSKHEAYGIVVAEALAAKTPCIVANTSALSEWIDNKNVFGIDYPINVSELARLIERVSNVKAGDMKLLDWDDVNERLIRIYSAKI,not soluble
